Laboratory results as given in patent US20180022822A1, “NOVEL ANTI-FIBROBLAST ACTIVATION PROTEIN (FAP) BINDING AGENTS AND USES THEREOF” (Mabimmune Diagnostics AG, priority 2016, published 2018).
Changes are numbered by the printed parent chain.

Columns and labels:
captured FAP (sFAP) = target: T1, captured FAP (sFAP) (Homo sapiens, UniProt Q12884); assay: capture ELISA, FAP captured via his-tag with coated anti-His antibody; assay type: binding
T1 sequence (Q12884 1-760): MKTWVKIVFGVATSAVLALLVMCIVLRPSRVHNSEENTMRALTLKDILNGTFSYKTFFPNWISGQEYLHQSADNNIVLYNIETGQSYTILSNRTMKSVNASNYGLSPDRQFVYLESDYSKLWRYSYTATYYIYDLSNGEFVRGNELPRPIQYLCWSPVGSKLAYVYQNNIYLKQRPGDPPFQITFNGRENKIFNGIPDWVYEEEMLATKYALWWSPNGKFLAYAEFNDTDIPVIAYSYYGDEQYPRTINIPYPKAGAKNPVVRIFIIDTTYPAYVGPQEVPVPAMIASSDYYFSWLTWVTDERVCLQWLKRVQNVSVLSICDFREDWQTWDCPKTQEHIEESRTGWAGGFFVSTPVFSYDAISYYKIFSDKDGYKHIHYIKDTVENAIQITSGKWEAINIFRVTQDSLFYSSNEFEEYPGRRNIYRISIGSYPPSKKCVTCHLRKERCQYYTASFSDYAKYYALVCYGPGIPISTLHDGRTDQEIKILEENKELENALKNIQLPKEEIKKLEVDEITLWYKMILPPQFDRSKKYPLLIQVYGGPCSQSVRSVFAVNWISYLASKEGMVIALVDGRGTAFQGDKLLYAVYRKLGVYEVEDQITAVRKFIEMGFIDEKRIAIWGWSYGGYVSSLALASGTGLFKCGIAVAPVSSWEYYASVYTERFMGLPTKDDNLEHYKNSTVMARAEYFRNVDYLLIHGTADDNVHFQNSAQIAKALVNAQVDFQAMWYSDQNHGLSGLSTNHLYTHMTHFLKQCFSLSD
Method: (§1) ELISA assays were performed with varying antibody concentrations to validate the binding of the exemplary antibodies of the present invention to FAP and to be able to determine their half maximal effective concentration (EC50). For the exemplary recombinant human NI-206-18H2, NI-206-20A8, NI-206-6D3, ‘NI-206-14C5, NI-206-34C11, NI-206.82C2, NI-206.59B4, NI-206.22F7, NI-206.27E8, NI-206.12G4 and NI-206.17A6 antibodies, 96-well microplates (Costar, Corning, USA) were coated with FAP, with a mixture of the 3 peptides or with BSA (Sigma-Aldrich, Buchs, Switzerland) diluted to a concentration of 5 μg/ml in carbonate ELISA coating buffer (15 mM Na2CO3, 35 mM NaHCO3, pH 9.4) for the direct ELISA. For the capture ELISA, the microplates were coated with mouse anti-His monoclonal antibody (Clontech) diluted to a concentration of 3 μg/ml in PBS, the plates were then blocked, FAP or BSA were diluted to a concentration of 2 μg/ml in PBS and added to the plates to be captured. The binding efficiency of the antibodies was then tested.
(§2) The EC50 values were estimated by a non-linear regression using GraphPad Prism (San Diego, USA) software. […] The binding of NI-206.12G4 towards sFAP was not tested.

[1] = target: T2, directly coated FAP (FAP) (Homo sapiens, UniProt Q12884); assay: direct ELISA on directly coated FAP; assay type: binding
T2 sequence (Q12884 1-760): T1 sequence (Q12884 1-760)
Method: as §1, §2

[2] = target: T3, transmembrane human FAP on FAP expressing HEK293 cells (Homo sapiens, UniProt Q12884); assay: flow cytometry of Cy5 labelled antibodies on FAP-HEK293 cells in pH adjusted PBS; assay type: cell-based; settings: pH 7.4 to 6.2; 0.1-100 nM Cy5 labelled antibody
T3 construct: HEK293 cells were transduced with retrovirus encoding full length human FAP cDNA; host or cells: HEK293 (retroviral transduction, G418 selected)
T3 sequence (Q12884 1-760): T1 sequence (Q12884 1-760)
Method: To evaluate the binding of NI-206.82C2, NI-206.59B4, NI-206.27E8, NI-206.12G4, NI-206.18H2 and NI-206.6D3 to transmembrane human FAP, an FAP expressing HEK293 cell line was received from the National Institutes of Health, Bethesda, Md. The generation of this FAP expressing HEK293 cells is described in: J. Exp. Med. 2013 Vol. 210 No. 6 1125-1135. HEK293 cells were transduced with retrovirus encoding full length human FAP cDNA. Cloning was performed using Fast Cloning Pack and FastDigest restriction enzymes (both from Fermentas). Transient retroviral supernatants were generated by transfecting 293GP cells with the FAP plasmid using Lipofectamine 2000 (Invitrogen). Retroviral supernatants were collected at 48 h after transfection and centrifuged onto Retronectin-coated (10 μg/ml; Takara), non-tissue culture-treated 6-well plates at 2,000 G for 2 h at 32° C. These retroviral supernatants where then used to transduce HEK293 cells overnight. Transduced FAP-HEK293 cells were selected with 1 mg/ml G418 (CellGro).
500′000 FAP-HEK293 cells were incubated for 1 hr at 4° C. either with Cy5 labelled NI-206.82C2, NI-206.59B4, NI-206.27E8, NI-206.12G4, NI-206.18H2 or NI-206.6D3 or with Cy5 labelled 43A11 at four different antibody concentrations (0.1, 1, 10, and 100 nM) in seven different pH-adjusted PBS buffers (pH 7.4, 6.8, 6.6, 6.5, 6.4, 6.3 and 6.2). PBS buffers were adjusted to using MES monohydrate (Sigma Aldrich). Following incubation, cells were washed 3 times with 200 uL in matched pH-adjusted PBS, spun at 400G for 4 min, and resuspended in 200 μL of pH adjusted buffer.
To analyze antibody binding, fluorescent activated flow cytometry was performed using a BD Fortesa device for forward scatter, side scatter, and the mean fluorescent intensity (MFI) of the Cy5 channel was recorded using a […] laser excitation and 600/20 filter. Viable cells were gated by forward and side scatter, and singlets/doublet exclusion, and the MFI for Cy5 was quantified using FlowJo software Version 10.1.

BSA = target: T4, BSA (Bos taurus, UniProt P02769); assay: ELISA control binding to BSA; parameters: species or system bovine
T4 construct: purchased Sigma-Aldrich
T4 sequence (P02769 25-607): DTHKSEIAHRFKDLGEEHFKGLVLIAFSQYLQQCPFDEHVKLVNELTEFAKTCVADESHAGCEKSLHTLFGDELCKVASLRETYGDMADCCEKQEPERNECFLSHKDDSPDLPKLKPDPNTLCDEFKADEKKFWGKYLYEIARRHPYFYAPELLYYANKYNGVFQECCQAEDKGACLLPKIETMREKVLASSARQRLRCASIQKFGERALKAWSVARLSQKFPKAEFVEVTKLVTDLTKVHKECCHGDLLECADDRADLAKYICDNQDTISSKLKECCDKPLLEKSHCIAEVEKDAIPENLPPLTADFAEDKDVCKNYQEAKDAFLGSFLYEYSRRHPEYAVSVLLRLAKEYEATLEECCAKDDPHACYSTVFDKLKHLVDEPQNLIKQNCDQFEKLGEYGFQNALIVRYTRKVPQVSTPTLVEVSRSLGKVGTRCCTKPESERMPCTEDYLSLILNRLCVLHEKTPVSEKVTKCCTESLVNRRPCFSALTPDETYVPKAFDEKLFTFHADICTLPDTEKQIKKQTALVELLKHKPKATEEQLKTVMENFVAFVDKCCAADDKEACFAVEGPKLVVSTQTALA
Method: as §1

[3] = test system: directly coated FAP peptides mixture (cFAP); assay: direct ELISA on coated mixture of FAP peptides; assay type: binding, human; settings: peptides 378-392, 622-636, 721-736
Method: as §1, §2

[4] = ELISA, varying antibody concentrations

B1: NI-206.59B4: human-derived recombinant anti-FAP antibody; VH SEQ ID NO: 8, VL SEQ ID NO: 10 (antibody, listed as Homo sapiens, V domains shown)
VH: QVQLVQSGAEVKKPGASVKVSCKTSGYTFTDYYIHWVRQAPGQGLEWMGWINPNRGGTNYAQKFQGRVTMTRDTSIATAYMELSRLRSDDTAVYYCATASLKIAAVGTFDCWGQGTLVTVSS
VL: SYELTQPPSVSVSPGQTARITCSGDALSKQYAFWFQQKPGQAPILVIYQDTKRPSGIPGRFSGSSSGTTVTLTISGAQADDEADYYCQSADSSGTYVFGTGTKVTVL
binding to the captured FAP (captured FAP (sFAP); [4]): specifically, strongly and similarly bind
binding to the directly coated FAP [1, 4]: specifically, strongly and similarly bind
paratope-specific avidity (ΔMFI) under acidic conditions vs. at pH 7.4 [2]: increased
binding to BSA (BSA): does not bind
EC50 to the directly coated FAP peptides mixture (cFAP) [3]: did not show any binding

B2: NI-206.27E8: human-derived recombinant anti-FAP antibody; VH SEQ ID NO: 16, VL SEQ ID NO: 18 (antibody, listed as Homo sapiens, V domains shown)
VH: EVQLVESGGGLVEPGGSLRLSCAASGFTFSDAWMNWVRQAPGKGLEWVGRIKTKSDGGTTDYAAPVRGRFSISRDDSKNTLFLEMNSLKTEDTAIYYCFITVIVVSSESPLDHWGQGTLVTVSS
VL: SYELTQPPSVSVSPGQTARITCSGDELPKQYAYWYQQKPGQAPVLVIYKDRQRPSGIPERFSGSSSGTTVTLTISGVQAEDEADYYCQSAYSINTYVIFGGGTKLTVL
paratope-specific avidity (ΔMFI) under acidic conditions vs. at pH 7.4 [2]: increased
EC50 to the directly coated FAP peptides mixture (cFAP) [3]: did not show any binding

B3: NI-206.17A6: human-derived recombinant anti-FAP antibody; VH SEQ ID NO: 24, VK SEQ ID NO: 26 (antibody, listed as Homo sapiens, V domains shown)
VH: QVQLQESGPGLVRSTETLSLTCLVSGDSINSHYWSWLRQSPGRGLEWIGYIYYTGPTNYNPSLKSRVSISLGTSKDQFSLKLSSVTAADTARYYCARNKVFWRGSDFYYYMDVWGKGTTVTVSS
VL: EIVLTQSPGTLSLSLGERATLSCRASQSLANNYLAWYQQKPGQAPRLLMYDASTRATGIPDRFSGSGSGTDFTLTISRLEPEDFAVYYCQQFVTSHHMYIFGQGTKVEIK
EC50 to the directly coated FAP peptides mixture (cFAP) [3]: did not show any binding

B4: NI-206.22F7: human-derived recombinant anti-FAP antibody; VH SEQ ID NO: 12, VL SEQ ID NO: 14 (antibody, listed as Homo sapiens, V domains shown)
VH: EVQLVETGGGVVQPGRSLRLSCAASGFSFSTHGMYWVRQPPGKGLEWVAVISYDGSDKKYADSVKGRFTISRDNSKNTVYLEMSSVRAEDTALYYCFCRRDAFDLWGQGTMVTVSS
VL: SYVLTQPPSVSVSPGQTARITCSGDALPKKYAYWYQQKSGQAPVLVIYEDTKRPSGIPERFSGSSSGTMATLTISGAQVEDEADYYCYSTDSSGNYWVFGGGTEVTVL
EC50 to the captured FAP (sFAP) (captured FAP (sFAP); capture ELISA, non-linear regression, GraphPad Prism): did not show any binding
EC50 to the directly coated FAP (FAP) ([1]; direct ELISA, non-linear regression, GraphPad Prism): did not show any binding

B5: NI-206.12G4: human-derived recombinant anti-FAP antibody; VH SEQ ID NO: 20, VL SEQ ID NO: 22 (antibody, listed as Homo sapiens, V domains shown)
VH: EVQLVESGGGLVKPGGSLRLSCAASGFTFSDYYMSWIRQAPGKGLEWISYISSGSSYTNYADSVKGRFTISRDNAKKSVYLEVNGLTVEDTAVYYCARVRYGDREMATIGGFDFWGQGTLVTVSS
VL: B2 VL with E26A, K38S, R51S, Q52E, Y91D, I93G, N94G, Y96S, V97R
paratope-specific avidity (ΔMFI) under acidic conditions vs. at pH 7.4 [2]: decreases
EC50 to the directly coated FAP peptides mixture (cFAP) [3]: did not show any binding
